Source: paper PMC5348903

Legend:
[1] = target: short isoform of BST2, Q10589-2; experiment: co-immunoprecipitation (Western blot densitometry); settings: HEK293T cells co-transfected with proviral construct and expressor of the short isoform of BST2; parent: 100
BST2 (WT BST2 expressor) = BST2 (WT BST2 expressor) (UniProt Q10589); experiment: co-immunoprecipitation (anti-BST2 Ab pull-down, Western blot densitometry); settings: HEK293T cells co-transfected with proviral construct and BST2 expressor; parent: 100

Chain of short isoform of BST2, Q10589-2 (Q10589 13-161): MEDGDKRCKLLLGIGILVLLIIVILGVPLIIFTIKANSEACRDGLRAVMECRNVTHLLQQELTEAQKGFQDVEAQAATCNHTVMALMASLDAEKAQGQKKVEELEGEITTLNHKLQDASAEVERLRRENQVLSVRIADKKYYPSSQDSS

Substance | percent of parent (% BST2 binding (relative to WT)) [1] | percent of parent (% BST2 binding (relative to WT)) (BST2 (WT BST2 expressor))
HIV-1 NL4-3 Vpu, wildtype E28A; L33A; E59K; L63F | 31 | 43
HIV-1 NL4-3 Vpu, wildtype E28A; L33A | 18 | 24
HIV-1 NL4-3 Vpu, wildtype S52D; S56D | 111 | 130
HIV-1 NL4-3 Vpu, wildtype E59K; L63F | 144 | 139
HIV-1 NL4-3 Vpu, wildtype A10L; A14L; A18L | 12 | 14
